{
  "source": "patent US20100215631A1",
  "about": "“ANTI-INFLAMMATORY COMPOSITION COMPRISING GLYCINE AND LACTOFERRIN AND THE USE THEREOF” (priority 2006, published 2010)",
  "molecules": {"B1": {"name": "lactoferrin (protein, UniProt P24627 20-708, looked up)", "Lactotransferrin": "APRKNVRWCTISQPEWFKCRRWQWRMKKLGAPSITCVRRAFALECIRAIAEKKADAVTLDGGMVFEAGRDPYKLRPVAAEIYGTKESPQTHYYAVAVVKKGSNFQLDQLQGRKSCHTGLGRSAGWIIPMGILRPYLSWTESLEPLQGAVAKFFSASCVPCIDRQAYPNLCQLCKGEGENQCACSSREPYFGYSGAFKCLQDGAGDVAFVKETTVFENLPEKADRDQYELLCLNNSRAPVDAFKECHLAQVPSHAVVARSVDGKEDLIWKLLSKAQEKFGKNKSRSFQLFGSPPGQRDLLFKDSALGFLRIPSKVDSALYLGSRYLTTLKNLRETAEEVKARYTRVVWCAVGPEEQKKCQQWSQQSGQNVTCATASTTDDCIVLVLKGEADALNLDGGYIYTAGKCGLVPVLAENRKSSKHSSLDCVLRPTEGYLAVAVVKKANEGLTWNSLKDKKSCHTAVDRTAGWNIPMGLIVNQTGSCAFDEFFSQSCAPGADPKSRLCALCAGDDQGLDKCVPNSKEKYYGYTGAFRCLAEDVGDVAFVKNDTVWENTNGESTADWAKNLNREDFRLLCLDGTRKPVTEAQSCHLAVAPNHAVVSRSDRAAHVKQVLLHQQALFGKNGKNCPDKFCLFKSETKNLLFNDNTECLAKLGGRPTYEEYLGTEYVTAIANLKKCSTSPLLEACAFLTR", "notes": "globular multifunctional protein of the transferrin family (DMV, Veghel)"}},
  "type_in_all_cases": "in vivo",
  "key": {"TNF-α producing cells": {"test_system": "TNF-α producing cells", "assay": "Ex-vivo ELISpot of TNF-α producing spleen cells from supplemented mice with zymosan-induced ear inflammation (Example 2)", "conditions": "1 μg/ml LPS, after three days of oral supplementation", "experimental": "The spleen was removed and pushed through a cell strainer. Red blood cell lysis was performed in 5 ml of could lysis buffer (4.15 g NH4Cl, 0.5 g KHCO3 and 18.6 mg Na2EDTA in 1 liter water at pH 7,3) for 5 minutes. Cells were washed twice in could RPMI (Invitrogen, Merelbeke, Belgium) and after centrifugation diluted to a concentration of 1.10^7 cells/ml. TNF-α producing cells were detected by ELISpot assay in the absence or presence of 1 μg/ml lipopolysaccharide (Sigma) (example 2).\nSpleen cells were collected from mice with a zymosan-induced inflammation in the ear after three days of oral supplementation with water (=control), lactoferrin (LF), glycine or a combination of LF and glycine. The number of TNF-α producing cells was determined using an ELISpot assay. LF and glycine inhibit the LPS stimulated number of TNF producing cells by 92% and 97% respectively (back to not zymosan treated control levels). The combination of glycine and lactoferrin inhibited the number of TNF-α positive cells 50% below the […] injected control. This unexpected high rate of inhibition makes the combination of glycine with lactoferrin an excellent choice for the treatment of inflammatory diseases."}, "Balb/C mice [1]": {"test_system": "Balb/C mice", "assay": "Dose response of lactoferrin in zymosan-induced ear swelling mouse model (Example 3)"}, "Balb/C mice [2]": {"test_system": "Balb/C mice", "assay": "Zymosan-induced ear swelling in an inflammatory mouse model (Example 1)", "conditions": "daily gavage 0.1 mg lactoferrin and/or 50 mg glycine, versus non-supplemented mice", "experimental": "Balb/C mice (8 weeks of age, Charles River, Maastricht, The Netherlands) were randomly assigned two control and three test groups and supplemented daily for three days with 0.1 mg lactoferrin (DMV, Veghel, The Netherlands), 50 mg glycine (Sigma, Zwijndrecht, The Netherlands) or a combination of both components (test groups 3, 4 and 5 respectively) or vehicle (control groups 1 and 2) was administered by gavage. At day two of the supplementation ear thickness was measured using a micrometer (Mitutoyo Digimatic, Veenendaal, The Netherlands) Subsequently 25 μl 0.5% zymosan (Sigma) in PBS (group 2-5) or vehicle (group 1) was injected subcutaneously in both ears. Ear thickness was measured 3, 6 and 24 hours (example 1) after injection after which the animals were sacrificed.\nIn mice injected in the ear with zymosan, lactoferrin (LF) and glycine (Gly) supplemented mice show a highest decrease in ear swelling when compared to non-supplemented mice, see Table 1. A clear synergistic effect of LF and Gly is observed."}},
  "data": [
    {"molecule": "B1", "values": [
      {"measurement": "Inhibition of the LPS stimulated number of TNF producing cells", "setting": "TNF-α producing cells", "result": 92, "unit": "%"},
      {"measurement": "swelling", "setting": "Balb/C mice [1]; 0.1 mg LF daily by gavage, time 1 hr", "result": 78},
      {"measurement": "swelling", "setting": "Balb/C mice [1]; 0.1 mg LF daily by gavage, time 2 hr", "result": 108},
      {"measurement": "swelling", "setting": "Balb/C mice [1]; 0.1 mg LF daily by gavage, time 4 hr", "result": 109},
      {"measurement": "swelling", "setting": "Balb/C mice [1]; 1 mg LF daily by gavage, time 1 hr", "result": 73},
      {"measurement": "swelling", "setting": "Balb/C mice [1]; 1 mg LF daily by gavage, time 2 hr", "result": 105},
      {"measurement": "swelling", "setting": "Balb/C mice [1]; 1 mg LF daily by gavage, time 4 hr", "result": 121},
      {"measurement": "swelling", "setting": "Balb/C mice [1]; 5 mg LF daily by gavage, time 1 hr", "result": 99},
      {"measurement": "swelling", "setting": "Balb/C mice [1]; 5 mg LF daily by gavage, time 2 hr", "result": 153},
      {"measurement": "swelling", "setting": "Balb/C mice [1]; 5 mg LF daily by gavage, time 4 hr", "result": 204},
      {"measurement": "Optimal dose", "setting": "Balb/C mice [1]; mouse, daily gavage, higher than 0", "result": "less than 5 mg"},
      {"measurement": "Decrease in ear swelling", "setting": "Balb/C mice [2]; 3 hrs after zymosan injection in ears", "result": "39 ± 12"},
      {"measurement": "Decrease in ear swelling", "setting": "Balb/C mice [2]; 6 hrs after zymosan injection in ears", "result": "53 ± 17"}
    ]}
  ]
}
